{"source": "patent US20250075192", "proteins": {"B1": {"name": "PcrA-DM1, a double cysteine mutant of PcrA, stochastically labeled with a mixture of donor and acceptor fluorophores (protein)", "chain": "MNFLSEQLLAHLNKEQQEAVRTTEGPLLIMAGAGSGKTRVLTHRIAYLMAEKHVAPWNILAITFTNKAAREMRERVQSLLGGAAEDVWISTFHSMAVRILRRDIDRIGINRNFSILDPTDQLSVMKTILKEKNIDPKKFEPRTILGTISAAKNELLPPEQFAKRASTYYEKVVSDVYQEYQQRLLRCHSLDFDDLIMTTIQLFDRVPDVLHYYQYKFQYIHIDEYQDTNRAQYTLVKKLAERFQNIAAVGDADQSIYRWRGADIQNILSFERDYPNAKVILLEQNYRSTKRILQAANEVIEHNVNRKPKRIWTENPEGKPILYYEAMNEADEAQFVAGRIREAVERGERRYRDFAVLYRTNAQSRVMEEMLLKANIPYQIVGGLKFYDRKEIKDILAYLRVIANPDDDCSLLRIINVPKRGIGASTIDKLVRYAADHELSLFEALGELEMIGLGAKAAGALAAFRSQLEQWTQLQEYVSVTELVEEVLDKSGYREMLKAERTIEAQSRLENLDEFLSVTKHFENVSDDKSLIAFLTDLALISDLDELDGTEQAAEGDAVMLMTLHAAKGLEFPVVFLIGMEEGIFPHNRSLEDDDEMEEERRLAYVGITRAEEELVLTSAQMRTLFGNIQMDPPSRFLNEIPAHLLETASRRQAGASRPAVSRPQASGAVGSWKVGDRANHRKWGIGTVVSVRGGGDDQELDIAFPSPIGIKRLLAKFAPIEKV"}}, "molecular_target": "T1, Wild type RepD from Staphylococcus aureus, as oriD DNA-RepD adduct", "T1 chain": "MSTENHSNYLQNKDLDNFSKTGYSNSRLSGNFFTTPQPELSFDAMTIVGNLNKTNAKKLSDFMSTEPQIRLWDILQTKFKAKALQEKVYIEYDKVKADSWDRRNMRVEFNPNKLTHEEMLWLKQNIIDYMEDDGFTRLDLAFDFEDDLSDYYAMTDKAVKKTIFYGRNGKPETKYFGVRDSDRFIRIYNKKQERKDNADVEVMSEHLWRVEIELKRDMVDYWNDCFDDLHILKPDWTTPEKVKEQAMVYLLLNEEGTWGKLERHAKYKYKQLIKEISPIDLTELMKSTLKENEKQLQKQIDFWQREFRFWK", "data": [{"protein": "B1", "values": [{"measurement": "EFRET distribution of dual labeled PcrA-DM1 (smFRET, intramolecular conformation of PcrA)", "value": "the presence of RepD indeed biases PcrA toward the closed high EFRET conformation"}]}]}
